Data as given in patent US6022720A, “Bax protein channel formation” (Glaxo Wellcome Inc., priority 1997, dated 2000).

What was measured:
sympathetic neurons = test: Lytic effects of added protein on sympathetic neurons; format: cell-based; conditions: coaddition of control protein with 10 μM Bax
Experimental: The effect of soluble recombinant Bax and Bcl-2 on the integrity of sympathetic neurons and sheep erythrocytes was tested. Ten μM Bax protein was added to serum-free medium of sympathetic neurons. […] (see FIG. 7B).

Bax = target: T1, Bax (Homo sapiens, UniProt Q07812); test: Inhibition of Bax-induced release of carboxyfluorescein from liposomes; format: biochemical; conditions: control protein preincubated with liposomes before Bax 70 nm
T1 construct: GST (pGEX2T, thrombin site) (N, cleaved yes); made in house; host or cells: E. coli PR745
T1 sequence (Q07812 with tags, fused parts or gaps limits assumed): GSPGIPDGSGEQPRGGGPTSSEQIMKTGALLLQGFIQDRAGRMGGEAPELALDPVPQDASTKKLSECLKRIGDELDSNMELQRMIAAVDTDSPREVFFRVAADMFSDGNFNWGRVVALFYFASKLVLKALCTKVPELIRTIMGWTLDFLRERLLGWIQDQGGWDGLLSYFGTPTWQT
Experimental: To determine whether Bax was a pore-forming protein, a study was undertaken to determine whether Bax could trigger the release of liposome-encapsulated carboxyfluorescein. […] The liposomes were dialyzed for 24 hours against PBS and diluted to 8 ml. For analysis at acidic pH, fluorescence of released dye was measured after adjustment of pH to 7.5 by addition of 1 M Tris-HCl pH 7.5.
In each test 20 μl of liposomes containing 20 mM carboxyfluorescein was diluted in 1 ml of PBS (pH 7.5) and 5 μl of purified protein was added at the time indicated by the arrow. Incubation was performed at room temperature. Final Bax concentrations are indicated for each curve (see FIG. 8A). Bcl-2 was tested at 70 nM. Each curve of FIG. 8A was normalized by subtraction of the initial fluorescence value obtained at time 0.
Liposomes (20 μl in 1 ml PBS) were first incubated (15 min at room temperature) with Bcl-2 or with a control protein (stathmin) before addition of Bax (70 nm) to the liposome solution.
After addition of the compound, 80 nM Bax was added to the liposome suspension and the fluorescence measured with a spectrofluorimeter.

ERK2: control protein [reference compound]
effect on Bax-induced neuronal lysis upon coaddition (sympathetic neurons): no effect

B1: stathmin: unrelated control protein (protein, UniProt P16949 2-149, looked up)
Stathmin: ASSDIQVKELEKRASGQAFELILSPRSKESVPEFPLSPPKKKDLSLEEIQKKLEAAEERRKSHEAEVLKQLAEKREHEKEVLQKAIEENNNFSKMAEEKLTHKMEANKENREAQMAAKLERLREKDKHIEEVRKNKESKDPADETEAD
effect on Bax-induced neuronal lysis upon coaddition (sympathetic neurons): no effect
effect on Bax function (carboxyfluorescein efflux) (Bax): no adverse effect
